# Results reported in US20230241072A1, “ANTHRACYCLINE DERIVATIVES” (ALMAC DISCOVERY LIMITED, priority 2019, published 2023).
# B1: P3A1hFc-PEG4-vc-PAB-EDA-PNU (conjugate)
# chain: TRVDQTPRTATKETGESLTINCVLTDTSYGLYSTSWFRKNPGTTDWERMSIGGRYVESVNKGAKSFSLRIKDLTVADSATYYCKAREARHPWLRQWYDGAGTVLTVNGGGGSGGGGSGGGGS
# modifications: left off: a dimerising Fc or GST
# B2: hFc - P3A1: hIgG1 Fc - VNAR P3A1 fusion (protein)
# chain: GGGGSGGGGSGGGGSTRVDQTPRTATKETGESLTINCVLTDTSYGLYSTSWFRKNPGTTDWERMSIGGRYVESVNKGAKSFSLRIKDLTVADSATYYCKAREARHPWLRQWYDGAGTVLTVN
# modifications: left off: a dimerising Fc or GST
# notes: hIgG1 Fc - VNAR P3A1 fusion
# B3: 2V hFc: non-binding control VNAR 2V fused to hIgG1 Fc (protein)
# chain: TRVDQTPRTATKETGESLTINCVLTDTSYGLYSTSWFRKNPGTTDWERMSIGGRYVESVNKGAKSFSLRIKDLTVADSATYYCKAQSLAISTRSYWYDGAGTVLTVNGGGGSGGGGSGGGGS
# modifications: left off: a dimerising Fc or GST
# B4: P3A1 hFc: ROR1-specific VNAR P3A1 fused to engineered hIgG1 Fc domain (S239C) (protein)
# chain: TRVDQTPRTATKETGESLTINCVLTDTSYGLYSTSWFRKNPGTTDWERMSIGGRYVESVNKGAKSFSLRIKDLTVADSATYYCKAREARHPWLRQWYDGAGTVLTVNGGGGSGGGGSGGGGS
# modifications: left off: a dimerising Fc or GST
# B5: B1V15 hFc: humanised VNAR B1V15 (SEQ ID NO: 59) - hFc fusion (protein)
# chain: ASVTQSPRSASKETGESLTITCRVTGANYGLAATYWYRKNPGSSNQERISISGRYSESVNKRTMSFSLRISSLTVEDSATYYCKAYPWGAGAPWLVQWYDGQGTKLEVKGGGGSGGGGSGGGGS
# modifications: left off: a dimerising Fc or GST
# B6: P3A1 hFc(442): VNAR P3A1 fused to engineered hIgG1 Fc with cysteine substitution S442C (EU numbering) (protein)
# chain: TRVDQTPRTATKETGESLTINCVLTDTSYGLYSTSWFRKNPGTTDWERMSIGGRYVESVNKGAKSFSLRIKDLTVADSATYYCKAREARHPWLRQWYDGAGTVLTVNGGGGSGGGGSGGGGS
# modifications: left off: a dimerising Fc or GST
# B7: P3A1hFc(442)-PEG4-va-EDA-PNU (conjugate)
# chain: TRVDQTPRTATKETGESLTINCVLTDTSYGLYSTSWFRKNPGTTDWERMSIGGRYVESVNKGAKSFSLRIKDLTVADSATYYCKAREARHPWLRQWYDGAGTVLTVNGGGGSGGGGSGGGGS
# modifications: left off: a dimerising Fc or GST
# Experiments:
# 697 = experiment: In vitro cell viability assay (Cell Titre Glo), VNAR drug conjugates: 697; type: cell-based, human
# Method: (§1) In Vitro Cell Viability Assays for Cancer Cells Treated with Anti ROR1 VNAR Drug Conjugates
# (§2) Cells were seeded into white, clear bottom 96 well plates (Costar) and incubated at 37° C., 5% CO2 for 24 hours. On the following day, dilution series were set up for each test agent at ×10 working stocks. The dose response ×10 stock was: 10000, 5000, 1000, 500, 100, 50, 10, 5, 1, 0.5 nM etc. 10 μL of the ×10 stock solutions were added to the cell plates (90 μl per well) using a multichannel pipette. […] 100d of vehicle control (PBS) was added to the control wells (columns 11 and 12). Plates were incubated at 37′C, 5% CO2 for 72-96 hours. Promega Cell litre Glo reagent was used as per the manufacturer's instructions to assess cell viability. Briefly, assay plates were removed from incubator and allowed to equilibrate to room temperature before adding […] of room temperature Cell litre Glo reagent to each 100 μl assay well. Plates were placed on a plate shaker for 2 minutes at 600 rpm. Plates were allowed to sit for a further 10 minutes at room temperature prior to measuring luminescence read-out using a Clariostar plate-reader (BMG). Data was analysed by calculating the average for untreated (vehicle only) control wells and determining the % of control for each treated well. % of control data was then plotted against Log [Treatment] concentration and the IC50 value derived using non-linear regression fitting in GraphPad Prism software.
# (§3) The following cell lines were used: • Kasumi-2—human B cell leukaemia precursor; • PA-1—human ovarian cancer cell line; • PA-1 ROR1 ko—human ovarian cancer cell line with ROR1 knock-out; • 697—human B cell leukaemia precursor, and • MHH-ES1—human Ewing's sarcoma cell line.
# [1] = Mouse plasma stability of protein-PNU conjugates (LC-MS of released payload); type: in vitro ADME; conditions: 37° C., 4 μM protein
# Method: (§4) Different P3A1-hFc-PNU conjugates were incubated at 37° C. in mouse plasma at a final concentration of 4 μM of protein. Samples were analysed by LC-MS as a function of time and the amount of released PNU159682 and EDA-PNU159682 derivative was quantified by reference to calibration standards.
# PA-1 = experiment: In vitro cell viability assay (Cell Titre Glo), VNAR drug conjugates: PA-1; type: cell-based, human; conditions: for IC50: Table 5, 96 h
# Method: as §1, §2, §3
# PA-1 ROR1 ko = experiment: In vitro cell viability assay (Cell Titre Glo), VNAR drug conjugates: PA-1 ROR1 ko; type: cell-based, human; conditions: for IC50: Table 5, 96 h, PA-1 ROR1 ko
# Method: as §1, §2, §3
# MHH-ES1 = experiment: In vitro cell viability assay (Cell Titre Glo), VNAR drug conjugates: MHH-ES1; type: cell-based, human; conditions: for IC50: Table 5, 96 h
# Method: as §1, §2, §3
# [2] = Human plasma stability of protein-PNU conjugates (LC-MS of released payload); type: in vitro ADME; conditions: 37° C., up to 168 h, 4 or 2 uM PDC, LLOQ 0.1 or 0.156 uM
# Method: as §4, with “Different” for “Different P3A1-hFc-PNU”, “C. for 168 h” for “C.”, “human” for “mouse”, “4 μM or 2” for “4”, “time up to and including 168 h” for “time”
# Cathepsin B = Cathepsin B (Homo sapiens, UniProt P07858); experiment: Cathepsin B treatment of protein-PNU conjugates, payload release; type: in vitro ADME; conditions: after treatment with Cat B; protein 10 uM (2VhFc conjugate 5 uM)
# Source text: Cathepsin B treatment of VNAR-hFc-vc-PAB-EDA-PNU conjugates and the corresponding conjugates of the multimeric proteins liberated free EDA-PNU159682 derivative in a quantitative fashion. Whereas, VNAR-hFc-va-EDA-PNU conjugates and the corresponding conjugates of the multimeric proteins were completely stable to Cathepsin B treatment.
# Only the vc-PAB-EDA-PNU releases payload on treatment with CatB as expected for the conditions used in this in vitro assay. The release is quantitative—as the conjugates have a drug to antibody ratio of 2, then twice the concentration of payload released versus the concentration of conjugate is expected after CatB treatment. This expectation matches the data shown in Table 11 for vc-PAB-EDA-PNU conjugates.
# Kasumi-2 = experiment: In vitro cell viability assay (Cell Titre Glo), VNAR drug conjugates: Kasumi-2; type: cell-based, human; conditions: for IC50: Table 5, 96 h
# Method: as §1, §2, §3
# ROR1 = ROR1 (Homo sapiens, UniProt Q01973); experiment: SPR / BLI binding kinetics to immobilised ROR1-hFc; design: ROR1-hFc or ROR2-hFc fusion proteins (extracelluar domains) were immobilised; conditions: for hROR1 Ka / hROR1 Ka (M^−1s^−1): association rate; for Kd: read-out: hROR1 KD
# Method: (§5) VNARs were genetically fused to engineered hIgG1 Fc domains via standard [G4S]3 that contained a cysteine substitution in the hIgG1 Fc sequence, S239C (EU numbering). The VNAR Fc fusion proteins were expressed as secreted protein in CHO K1 cells and purified from the media using MabSelect™ SuRe™ (Evitria, Switzerland). Purified proteins were analysed by SEC (AdvanceBio, Agilent), SDS PAGE and mass spectrometry to confirm sequence and protein integrity. Binding kinetics were determined using a Pioneer Surface Plasmon Resonance (SPR) instrument (SensiQ/Pall ForteBio), or the Biolayer Interferometry (BLI) Octet K2 system (ForteBio). ROR1-hFc or ROR2-hFc fusion proteins (extracelluar domains) were immobilised in sodium acetate pH5 buffer to COOH2 chips or AR2G sensors using amine coupling. VNARs and VNAR-Fc molecules were tested at various concentrations and the Ka (M^−1 s^−1), Kd (s^−1) and KD (nM) values were determined using QDat software (SensiQ/Pall ForteBio) or Octet Data Analysis High Throughput software (ForteBio) for Biolayer Interferometry. ROR1 2A2 mAb (Biolegend) and ROR2 mAb (R&D Systems) were included as controls for positive/negative binding to ROR1 and ROR2. 2V is a control VNAR sequence, derived from a naïve VNAR library, so is representative of this protein class but has no known target.
# (§6) Binding kinetics for binding of the multimeric VNAR proteins to ROR1-hFc or ROR2-hFc fusion proteins (extracelluar domains) were determined using a Pioneer Surface Plasmon Resonance (SPR) instrument (SensiQ/Pall ForteBio) or the Biolayer Interferometry (BLI) Octet K2 system (ForteBio) as previously described.
# human ROR2 = molecular target: T1, human ROR2 (Homo sapiens, UniProt Q01974); experiment: SPR / BLI binding to immobilised ROR2-hFc
# T1 construct: ROR1-hFc or ROR2-hFc fusion proteins (extracelluar domains) were immobilised
# Method: as §5, §6
# [3] = ratio to corresponding non-binding 2V-hFc conjugate
# [4] = Table 3, VNAR-Fc fusions, dissociation rate
# [5] = Table 3b, VNAR-Fc fusions, dissociation rate
molecule,measurement,setting,value
B1,IC50,"697; Table 5, 96 h",52 nM
same,ROR1 targeting/2V non-targeting window 697,697; [3],1.2
same,"Concentration (nM) of free PNU payload detected by LC-MS, 4 h",[1]; 4 h,21 nM
same,"Concentration (nM) of free PNU payload detected by LC-MS, 24 h",[1]; 24 h,84 nM
same,"Concentration (nM) of free PNU payload detected by LC-MS, 48 h",[1]; 48 h,108 nM
same,"Concentration (nM) of free PNU payload detected by LC-MS, 72 h",[1]; 72 h,107 nM
same,"Concentration (nM) of free PNU payload detected by LC-MS, 96 h",[1]; 96 h,101 nM
same,"Concentration (nM) of free PNU payload detected by LC-MS, 120 h",[1]; 120 h,114 nM
same,IC50,PA-1,0.1 nM
same,ROR1 targeting/2V non-targeting window PA-1,PA-1; [3],73
same,IC50,PA-1 ROR1 ko,11 nM
same,ROR1 targeting/2V non-targeting window PA-1 31-J-06,"PA-1 ROR1 ko; ratio to corresponding non-binding 2V-hFc conjugate, PA-1 31-J-06 (ROR1 −/−; matches PA-1 ROR1 ko of Table 5)",1.3
same,IC50,MHH-ES1,24 nM
same,ROR1 targeting/2V non-targeting window MHH-ES1,MHH-ES1; [3],1.1
same,Observed EDA payload release,[2],EDA-PNU not detected above LLOQ
same,Average Conc EDA Released,Cathepsin B,20.1 µM
same,IC50,Kasumi-2,3.2 nM
same,ROR1 targeting/2V non-targeting window Kasumi-2,Kasumi-2; [3],18
B2,hROR1 Ka,"ROR1; Table 3, VNAR-Fc fusions",2.38e+06 M⁻¹ s⁻¹
same,hROR1 Kd,ROR1; [4],0.000776 s⁻¹
same,Kd,"ROR1; Table 3, VNAR-Fc fusions",0.35 nM
same,hROR2,"human ROR2; Table 3, VNAR-Fc fusions",No binding
B3,hROR1 KD (nM),"ROR1; Table 3, VNAR-Fc fusions",No binding
same,hROR1 Ka (M^−1s^−1),"ROR1; Table 3, VNAR-Fc fusions",No binding
same,hROR1 Kd (s^−1),ROR1; [4],No binding
same,hROR2,"human ROR2; Table 3, VNAR-Fc fusions",No binding
B4,hROR1 Ka,"ROR1; Table 3, VNAR-Fc fusions",1.07e+07 M⁻¹ s⁻¹
same,hROR1 Kd,ROR1; [4],0.000564 s⁻¹
same,Kd,"ROR1; Table 3, VNAR-Fc fusions",0.084 nM
same,hROR2,"human ROR2; Table 3, VNAR-Fc fusions",No binding
B5,hROR1 Ka,"ROR1; Table 3b, VNAR-Fc fusions",179000 M⁻¹ s⁻¹
same,hROR1 Kd,ROR1; [5],0.00013 s⁻¹
same,hROR2,"human ROR2; Table 3b, VNAR-Fc fusions",No binding
B6,hROR1 Ka (M^−1s^−1),"ROR1; Table 3b, VNAR-Fc fusions",2.70+05 M^−1s^−1
same,hROR1 Kd,ROR1; [5],0.0002 s⁻¹
same,hROR2,"human ROR2; Table 3b, VNAR-Fc fusions",No binding
B7,IC50,PA-1,0.025 nM
same,IC50,PA-1 ROR1 ko,18.3 nM
same,IC50,MHH-ES1,37.5 nM
same,Observed EDA payload release,[2],No EDA-PNU detected at any time points
same,IC50,Kasumi-2,9.1 nM
